According to patent US7364741:

Legend:
[1] = molecular target: HLA-A3.2 molecules isolated from the EBV transformed cell line GM3107 (human)
[2] = molecular target: HLA-A11.2 molecules isolated from the cell line BVR (human)
[3] = molecular target: HLA-A24 molecules isolated from the EBV transformed cell line KT3 (human)
[4] = molecular target: HLA-A2.1 molecules isolated from the EBV transformed cell line JY (human)
[5] = molecular target: HLA-A2.1 molecules expressed by 174CEM.T2 cells (human); assay: T2 HLA-A2.1 stabilisation, flow cytometry (BB7.2), peptide 200 ug/ml
[6] = molecular target: HLA-A1 molecules isolated from the EBV transformed cell line Steinlin (human)

## … (residues 107-115 of HPV16 protein E6), synthesized with alanine instead of cysteine (peptide; other documents disagree on this pair)
[1]
  binding ratio to standard: 3.7
[2]
  binding ratio to standard: 0.012

## … (residues 72-80 of HPV16 protein E6), synthesized with alanine instead of cysteine (peptide; other documents disagree on this pair)
[3]
  binding ratio to standard: 0.11

## … (residues 33-41 of HPV16 protein E6), synthesized with alanine instead of cysteine (peptide; other documents disagree on this pair)
[1]
  binding ratio to standard: 1.5
[2]
  binding ratio to standard: 6.7

## … (residues 52-60 of HPV16 protein E6), synthesized with alanine instead of cysteine (peptide; other documents disagree on this pair)
[4]
  binding ratio to standard: 0.37

## … (residues 52-60 of HPV16 protein E7), synthesized with alanine instead of cysteine (peptide; other documents disagree on this pair)
[1]
  binding ratio to standard: 0.0067
[2]
  binding ratio to standard: 0.006

## … (residues 38-46 of HPV16 protein E6), synthesized with alanine instead of cysteine (peptide; other documents disagree on this pair)
[1]
  binding ratio to standard: 0.0012
[3]
  binding ratio to standard: 0.0011
[2]
  binding ratio to standard: 0.0022

## […] (residues 25-33 of HPV16 protein E6) (peptide; other documents disagree on this pair)
[5]
  FI (Fluorescence Index): 0.6
  MF (mean fluorescence): 108

## […] (residues 82-90 of HPV16 protein E7) (peptide; other documents disagree on this pair)
[5]
  FI (Fluorescence Index): 0.8
  MF (mean fluorescence): 119

## … (residues 80-88 of HPV16 protein E6), synthesized with alanine instead of cysteine (peptide; other documents disagree on this pair)
[1]
  binding ratio to standard: 0.0064
[2]
  binding ratio to standard: 0.43

## … (residues 140-148 of HPV16 protein E6), synthesized with alanine instead of cysteine (peptide; other documents disagree on this pair)
[2]
  binding ratio to standard: 0.0012

## … (residues 144-152 of HPV16 protein E6), synthesized with alanine instead of cysteine (peptide; other documents disagree on this pair)
[6]
  binding ratio to standard: 0.019

## … (residues 145-153 of HPV16 protein E6), synthesized with alanine instead of cysteine (peptide; other documents disagree on this pair)
[1]
  binding ratio to standard: 0.02

## … (residues 82-90 of HPV16 protein E6), synthesized with alanine instead of cysteine (peptide; other documents disagree on this pair)
[3]
  binding ratio to standard: 0.046

## … (residues 67-75 of HPV16 protein E6), synthesized with alanine instead of cysteine (peptide; other documents disagree on this pair)
[1]
  binding ratio to standard: 0.0012
[2]
  binding ratio to standard: 0.0074

## … (residues 87-95 of HPV16 protein E6), synthesized with alanine instead of cysteine (peptide; other documents disagree on this pair)
[3]
  binding ratio to standard: 0.12

## … (residues 19-27 of HPV16 protein E7), synthesized with alanine instead of cysteine (peptide; other documents disagree on this pair)
[6]
  binding ratio to standard: 0.023

## … (residues 84-92 of HPV16 protein E6), synthesized with alanine instead of cysteine (peptide; other documents disagree on this pair)
[1]
  binding ratio to standard: 0.0036

## … (residues 60-68 of HPV16 protein E7), synthesized with alanine instead of cysteine (peptide; other documents disagree on this pair)
[1]
  binding ratio to standard: 0.0012

## … (residues 69-77 of HPV16 protein E6), synthesized with alanine instead of cysteine (peptide; other documents disagree on this pair)
[1]
  binding ratio to standard: 0.0025
[2]
  binding ratio to standard: 0.003

## … (residues 97-105 of HPV16 protein E6), synthesized with alanine instead of cysteine (peptide; other documents disagree on this pair)
[1]
  binding ratio to standard: 0.0045

## … (residues 146-154 of HPV16 protein E6), synthesized with alanine instead of cysteine (peptide; other documents disagree on this pair)
[1]
  binding ratio to standard: 0.002

## … (residues 51-59 of HPV16 protein E7), synthesized with alanine instead of cysteine (peptide; other documents disagree on this pair)
[1]
  binding ratio to standard: 0.026
[2]
  binding ratio to standard: 0.001

## … (residues 79-87 of HPV16 protein E6) with alanine instead of cysteine (peptide; other documents disagree on this pair)
[1]
  binding ratio to standard: 0.0044
[2]
  binding ratio to standard: 0.0076

## … (residues 58-66 of HPV16 protein E7), synthesized with alanine instead of cysteine (peptide; other documents disagree on this pair)
[1]
  binding ratio to standard: 0.0016
[2]
  binding ratio to standard: 0.011

## … (residues 68-76 of HPV16 protein E6), synthesized with alanine instead of cysteine (peptide; other documents disagree on this pair)
[1]
  binding ratio to standard: 0.0056
[2]
  binding ratio to standard: 0.0037

## … (residues 85-93 of HPV16 protein E6), synthesized with alanine instead of cysteine (peptide; other documents disagree on this pair)
[3]
  binding ratio to standard: 0.0037

## … (residues 66-74 of HPV16 protein E6), synthesized with alanine instead of cysteine (peptide; other documents disagree on this pair)
[3]
  binding ratio to standard: 0.0055

## … (residues 143-151 of HPV16 protein E6), synthesized with alanine instead of cysteine (peptide; other documents disagree on this pair)
[1]
  binding ratio to standard: 0.18
[2]
  binding ratio to standard: 0.0084

## … (residues 37-45 of HPV16 protein E6) with alanine instead of cysteine (peptide; other documents disagree on this pair)
[1]
  binding ratio to standard: 0.032
[2]
  binding ratio to standard: 0.045

## … (residues 90-98 of HPV16 protein E7), synthesized with alanine instead of cysteine (peptide; other documents disagree on this pair)
[2]
  binding ratio to standard: 0.0012

## … (residues 86-94 of HPV16 protein E7) (peptide)
[5]
  FI (Fluorescence Index): 2.5
  MF (mean fluorescence): 228

## … (residues 139-147 of HPV16 protein E6), synthesized with alanine instead of cysteine (peptide; other documents disagree on this pair)
[6]
  binding ratio to standard: 0.02
